Data published in article PMC9850920.

Target: T1, METTL16-His6 (full length) (Homo sapiens, UniProt Q86W50)
T1 sequence: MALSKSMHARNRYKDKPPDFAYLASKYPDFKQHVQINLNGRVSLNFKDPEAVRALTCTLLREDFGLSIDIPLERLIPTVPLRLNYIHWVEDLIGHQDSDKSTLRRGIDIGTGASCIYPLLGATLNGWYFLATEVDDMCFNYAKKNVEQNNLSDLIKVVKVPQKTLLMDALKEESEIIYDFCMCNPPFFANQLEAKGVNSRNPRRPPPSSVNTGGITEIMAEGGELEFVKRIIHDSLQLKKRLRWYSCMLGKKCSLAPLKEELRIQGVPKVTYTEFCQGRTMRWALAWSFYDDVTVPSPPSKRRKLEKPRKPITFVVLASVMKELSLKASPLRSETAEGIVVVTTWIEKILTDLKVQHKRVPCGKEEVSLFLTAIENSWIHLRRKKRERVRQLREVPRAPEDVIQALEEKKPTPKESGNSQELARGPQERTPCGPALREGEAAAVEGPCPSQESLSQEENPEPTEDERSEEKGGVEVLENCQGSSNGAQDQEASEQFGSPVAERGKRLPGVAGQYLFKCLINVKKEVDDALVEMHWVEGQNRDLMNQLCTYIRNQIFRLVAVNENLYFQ
Assay: MST

B1: MALAT1 triple helix (structured_RNA)
RNA: GGAAGGUUUUUCUUUUCCUGAGAAAACAACACGUAUUGUUUUCUCAGGUUUUGCUUUUUGGCCUUUUUCUAGCUUAAAAAAAAAAAAAGCAAAA
Kd: 31 ± 3 nM
